Test results from FireProtDB (doi:10.1016/j.jmb.2004.06.079).

B1: Malate dehydrogenase, P80040 (parent)
chain: MRKKISIIGAGFVGSTTAHWLAAKELGDIVLLDFVEGVPQGKALDLYEASPIEGFDVRVTGTNNYADTANSDVIVVTSGAPRKPGMSREDLIKVNADITRACISQAAPLSPNAVIIMVNNPLDAMTYLAAEVSGFPKERVIGQAGVLDAARYRTFIAMEAGVSVEDVQAMLMGGHGDEMVPLPRFSTISGIPVSEFIAPDRLAQIVERTRKGGGEIVNLLKTGSAYYAPAAATAQMVEAVLKDKKRVMPVAAYLTGQYGLNDIYFGVPVILGAGGVEKILELPLNEEEMALLNASAKAVRATLDTLKSL

Variants of: B1
Conditions: Chloroflexus aurantiacus (strain ATCC 29366 / DSM 635 / J-10-fl), Thermal, CD, structure 1GUY, whole UniProt chain shown
[1] = pH 6, potassium phosphate 10 mM
[2] = pH 7.5, potassium phosphate 10 mM

Variant | Tm (pH 4.4, sodium acetate 10 mM) [°C] | change of melting temperature, mutant - wild type (higher = more stable) (pH 4.4, sodium acetate 10 mM) [°C] | Tm [1] [°C] | change of melting temperature, mutant - wild type (higher = more stable) [1] [°C] | Tm [2] [°C] | change of melting temperature, mutant - wild type (higher = more stable) [2] [°C]
E165K | 85 | 4.6 | 91.4 | 12 | 91.7 | 23.9
E165Q | 85.8 | 5.4 | – | – | 91.4 | 23.6
